Assay results: patent publication US5627154A, “Calcium channel blocking polypeptides from Heteropoda venatoria” (Pfizer Inc., priority 1995, dated 1997)
Where no end group is shown, it is not given here.

target: calcium channels; conditions: not given

| Molecule | IC50 for blocking calcium channels (decrease in fura2 fluorescence) [nM] |
| --- | --- |
| DDDCGWIMDDCTSDSDCCPNWVCSKTGFVKNICKYEM-NH2 (not fully specified (bridges); also: 3 disulfide bonds, pairing not given here) [Heteropoda peptide AU 5A] | < 3000 |
| ECGTLFSGCSTHADCCEGFICKLWCRYERTW-NH2 (not fully specified (bridges); also: 3 disulfide bonds, pairing not given here) [Heteropoda peptide AU 5C] | < 3000 |
| DDCGGLFSGCDSNADCCEGYVCRLWCKYKL-NH2 (not fully specified (bridges); also: 3 disulfide bonds, pairing not given here) [Heteropoda peptide AU 2] | < 3000 |
| DCGTIWHYCGTDQSECCEGWKCSRQLCKYVIDW-NH2 (not fully specified (bridges); also: 3 disulfide bonds, pairing not given here) [Heteropoda peptide AU 3] | < 3000 |
| DDCGTLFSGCDTSKDCCEGYVCHLWCKYK-NH2 (not fully specified (bridges); also: 3 disulfide bonds, pairing not given here) [Heteropoda peptide KJ 1] | < 3000 |
| DDCGKLFSGCDTNADCCEGYVCRLWCKLDW-NH2 (disulfide (positions not given here)) [Heteropoda peptide KJ 6] | < 3000 |
| DCGTIWHYCGTDQSECCEGWKCSRQLCKYVIDW-NH2 (not fully specified (bridges); also: 3 disulfide bonds, pairing not given here) [Heteropoda peptide KJ 5] | < 3000 |
| ECGTLFSGCSTHADCCEGFICKLWCRYERTW-NH2 (disulfide (positions not given here)) [Heteropoda peptide KJ 7] | < 3000 |
| ADCGWLFHSCESNADCCENWACATTGRFRYLCKYQI-NH2 (not fully specified (bridges); also: 3 disulfide bonds, pairing not given here) [Heteropoda peptide AU 5B] | < 3000 |

tested on: calcium channels; conditions: read-out: IC50 values for blocking calcium channels; cerebellar granule cells from 8 day old rats, fura2 fluorescence, 37° C.

| Molecule | IC50 [µM] |
| --- | --- |
| COc1ccc(CCN(C)CCCC(C#N)(c2ccc(OC)c(OC)c2)C(C)C)cc1OC (stereo not shown) [Verapamil] | 4.8 |
